# Measured values reported in IntAct's records for PubMed 12023880.
# B1: Tyrosine-protein phosphatase non-receptor type 1 (Homo sapiens), P18031 (parent)
# chain: MEMEKEFEQIDKSGSWAAIYQDIRHEASDFPCRVAKLPKNKNRNRYRDVSPFDHSRIKLHQEDNDYINASLIKMEEAQRSYILTQGPLPNTCGHFWEMVWEQKSRGVVMLNRVMEKGSLKCAQYWPQKEEKEMIFEDTNLKLTLISEDIKSYYTVRQLELENLTTQETREILHFHYTTWPDFGVPESPASFLNFLFKVRESGSLSPEHGPVVVHCSAGIGRSGTFCLADTCLLLMDKRKDPSSVDIKKVLLEMRKFRMGLIQTADQLRFSYLAVIEGAKFIMGDSSVQDQWKELSHEDLEPPPEHIPPPPRPPKRILEPHNGKCREFFPNHQWVKEETQEDKDCPIKEEKGSPLNAAPYGIESMSQDTEVRSRVVGGSLRGAQAASPAKGEPSLPEKDEDHALSYWKPFLVNMCVATVLTAGAYLCYRFLFNSNT
# B2: Tyrosine-protein phosphatase non-receptor type 1 (Homo sapiens), P18031 (parent)
# chain: B1 chain
# partner: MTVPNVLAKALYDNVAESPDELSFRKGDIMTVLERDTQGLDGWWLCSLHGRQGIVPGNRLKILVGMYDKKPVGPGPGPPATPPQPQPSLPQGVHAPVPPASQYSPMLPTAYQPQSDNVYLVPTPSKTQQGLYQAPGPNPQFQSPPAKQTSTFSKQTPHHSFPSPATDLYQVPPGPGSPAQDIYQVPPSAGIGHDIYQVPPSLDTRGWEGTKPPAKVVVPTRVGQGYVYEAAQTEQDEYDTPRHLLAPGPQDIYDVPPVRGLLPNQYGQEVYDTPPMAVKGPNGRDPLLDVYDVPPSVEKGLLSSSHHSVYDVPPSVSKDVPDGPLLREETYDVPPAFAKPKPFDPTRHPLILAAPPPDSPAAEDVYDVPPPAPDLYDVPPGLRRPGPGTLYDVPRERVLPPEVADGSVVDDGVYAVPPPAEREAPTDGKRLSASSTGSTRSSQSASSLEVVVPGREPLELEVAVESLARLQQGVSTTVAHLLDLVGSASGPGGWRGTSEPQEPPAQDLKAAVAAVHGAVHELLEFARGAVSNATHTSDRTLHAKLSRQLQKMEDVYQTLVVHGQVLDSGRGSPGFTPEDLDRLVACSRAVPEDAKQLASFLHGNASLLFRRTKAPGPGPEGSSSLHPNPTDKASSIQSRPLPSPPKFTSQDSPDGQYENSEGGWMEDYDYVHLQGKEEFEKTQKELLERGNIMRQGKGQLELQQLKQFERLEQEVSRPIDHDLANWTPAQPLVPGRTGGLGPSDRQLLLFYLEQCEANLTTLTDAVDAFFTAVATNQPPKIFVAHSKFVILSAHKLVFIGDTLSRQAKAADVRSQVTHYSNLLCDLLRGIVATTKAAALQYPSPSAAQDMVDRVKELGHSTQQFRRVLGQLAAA
# Variants of: B1
# Conditions: with src_rat Src
row,Variant,effect of a mutation on the interaction
1,P309A;P310A,disrupting interaction

# Variants of: B1
# Conditions: with grb2_rat Grb2, P62994
# grb2_rat Grb2, P62994, sequence (P62994 whole entry, looked up): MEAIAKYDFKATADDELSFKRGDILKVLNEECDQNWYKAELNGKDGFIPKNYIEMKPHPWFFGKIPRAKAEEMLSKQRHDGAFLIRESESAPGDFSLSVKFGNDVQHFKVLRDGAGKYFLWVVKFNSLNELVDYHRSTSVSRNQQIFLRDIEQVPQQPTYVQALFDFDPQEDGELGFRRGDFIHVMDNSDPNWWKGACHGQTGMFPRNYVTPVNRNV
row,Variant,effect of a mutation on the interaction
1,P309A;P310A,disrupting interaction

# Variants of: B1
# Conditions: with crk_rat Crk
row,Variant,effect of a mutation on the interaction
1,P309A;P310A,disrupting interaction

# Variants of: B1
# Conditions: with insr_rat Insr
row,Variant,effect of a mutation on the interaction
1,Y152F;Y153F,disrupting interaction

# Variants of: B2
# Conditions: with bcar1_mouse Bcar1, Q61140
row,Variant,effect of a mutation on the interaction
1,P309A;P310A,disrupting interaction
